In US20170306033A1 (Amgen, published 2017):
Substitutions are numbered along the chain they refer to.

Tests used:
human CGRP receptor = human CGRP receptor (human, UniProt Q16602 23-461; O60894 27-148); assay: cell-based or functional assay
human PAC1 receptor = target: T1, human PAC1 receptor (human, UniProt P41586 21-468); assay: cell-based or functional assay
T1 sequence: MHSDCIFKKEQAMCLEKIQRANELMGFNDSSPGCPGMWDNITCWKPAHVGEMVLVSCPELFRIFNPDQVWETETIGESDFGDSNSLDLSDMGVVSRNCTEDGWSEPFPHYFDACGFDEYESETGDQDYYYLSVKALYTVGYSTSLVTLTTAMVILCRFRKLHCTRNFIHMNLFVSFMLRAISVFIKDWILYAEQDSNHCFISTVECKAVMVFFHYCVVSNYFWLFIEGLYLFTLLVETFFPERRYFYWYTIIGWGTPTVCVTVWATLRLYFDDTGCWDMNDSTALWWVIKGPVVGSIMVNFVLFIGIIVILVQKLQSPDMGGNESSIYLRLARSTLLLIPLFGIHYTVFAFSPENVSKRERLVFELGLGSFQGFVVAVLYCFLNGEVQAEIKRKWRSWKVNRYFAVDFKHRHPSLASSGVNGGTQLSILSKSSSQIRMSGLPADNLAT

Sequence of human CGRP receptor (Q16602 23-461 limits assumed, chain 1 of 2): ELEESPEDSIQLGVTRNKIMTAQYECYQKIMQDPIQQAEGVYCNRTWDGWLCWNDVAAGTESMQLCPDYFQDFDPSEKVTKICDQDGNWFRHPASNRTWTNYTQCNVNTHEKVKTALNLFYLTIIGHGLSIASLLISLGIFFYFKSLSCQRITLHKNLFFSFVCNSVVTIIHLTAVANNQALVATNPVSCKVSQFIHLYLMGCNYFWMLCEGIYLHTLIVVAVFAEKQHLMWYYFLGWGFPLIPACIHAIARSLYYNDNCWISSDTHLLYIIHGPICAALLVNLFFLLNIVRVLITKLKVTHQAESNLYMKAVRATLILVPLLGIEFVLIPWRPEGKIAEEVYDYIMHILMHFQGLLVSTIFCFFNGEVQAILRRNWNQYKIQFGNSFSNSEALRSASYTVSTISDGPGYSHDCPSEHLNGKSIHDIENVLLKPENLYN
Sequence of human CGRP receptor (O60894 27-148 limits assumed, chain 2 of 2): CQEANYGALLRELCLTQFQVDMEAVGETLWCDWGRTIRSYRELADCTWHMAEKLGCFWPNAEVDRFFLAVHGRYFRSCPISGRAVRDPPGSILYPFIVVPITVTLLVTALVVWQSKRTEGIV

B1: iPS:326661 (bispecific antibody, human IgG2, kappa)
light 1: not shown
heavy 1: QVQLQQSGPGLVKPSQTLSLTCAISGDSVSSNSATWNWIRQSPSRGLEWLGRTYYRSKWSNHYAVSVKSRITINPDTSKSQFSLQLNSVTPEDTAVYYCARGTWKQLWFLDHWGQGTLVTVSSASTKGPSVFPLAPCSRSTSESTAALGCLVKDYFPEPVTVSWNSGALTSGVHTFPAVLQSSGLYSLKSVVTVPSSNFGTQTYTCNVDHKPSNTKVDKTVERKCCVECPPCPAPPVAGPSVFLFPPKPKDTLMISRTPEVTCVVVDVSHEDPEVQFNWYVDGVEVHNAKTKPREEQFNSTFRVVSVLTVVHQDWLNGKEYKCKVSNKGLPAPIEKTISKTKGQPREPQVYTLPPSREEMTKNQVSLTCLVDGFYPSDIAVEWESNGQPENNYDTTPPMLDSDGSFFLYSDLTVDKSRWQQGNVFSCSVMHEALHNHYTQKSLSLSPGK
light 2: EIVLTQSPGTLSLSPGERATLSCRASQSVSSGYLTWYQQKPGQAPRLLIYGASSRATGIPDRFSGSGSGTDFTLTISRLEPEDFAVYYCQQYGNSLSRFGQGTKLEIKRTVAAPSVFIFPPSDEQLKSGTASVVCLLNNFYPREAKVQWKVDNALQSGNSQESVTEQDSKDSTYSLKSTLTLSKADYEKHKVYACEVTHQGLSSPVTKSFNRGEC
heavy 2: QVQLVESGGGVVQPGRSLRLSCAASGFTFSSYGMHWVRQAPGKGLEWVAVIWYDGSNKYYADSVKGRFIISRDKSKNTLYLQMNSLRAEDTAVYYCARAGGIAAAGLYYYYGMDVWGQGTTVTVSSASTKGPSVFPLAPCSRSTSESTAALGCLVKDYFPEPVTVSWNSGALTSGVHTFPAVLQSSGLYSLESVVTVPSSNFGTQTYTCNVDHKPSNTKVDKTVERKCCVECPPCPAPPVAGPSVFLFPPKPKDTLMISRTPEVTCVVVDVSHEDPEVQFNWYVDGVEVHNAKTKPREEQFNSTFRVVSVLTVVHQDWLNGKEYKCKVSNKGLPAPIEKTISKTKGQPREPQVYTLPPSRKKMTKNQVSLTCLVKGFYPSDIAVEWESNGQPENNYKTTPPMLKSDGSFFLYSKLTVDKSRWQQGNVFSCSVMHEALHNHYTQKSLSLSPGK
% inhibition of human CGRPR (human CGRP receptor): 77%
% inhibition of human PAC1 (human PAC1 receptor): 72%

B2: iPS:327698 (bispecific antibody, human IgG1, kappa, lambda, N297G)
light 1: EIVLTQSPATLSLSPGERATLSCRASQSVGRSLHWYQQKPGQAPRLLIKYASQSLSGIPARFSGSGSGTDFTLTISSLEPEDFAVYYCHQSSRLPFTFGEGTKVDIKRTVAAPSVFIFPPSDEQLKSGTASVVCLLNNFYPREAKVQWKVDNALQSGNSQESVTEQDSKDSTYSLESTLTLSKADYEKHKVYACEVTHQGLSSPVTKSFNRGEC
heavy 1: not shown
light 2: QSVLTQPPSVSAAPGQKVTISCSGSSSNIGNNYVSWYQQLPGTAPKLLIYDNNKRPSGIPDRFSGSKSGTSTTLGITGLQTGDEADYYCGTWDSRLSAVVFGKGTKLTVLGQPKANPTVTLFPPSSEELQANKATLVCLISDFYPGAVTVAWKADGSPVKAGVETTKPSKQSNNKYAAKSYLSLTPEQWKSHRSYSCQVTHEGSTVEKTVAPTECS
heavy 2: QVQLVESGGGVVQPGRSLRLSCAASGFTFSSFGMHWVRQAPGKELEWVAVISFDGSIKYSVDSVKGRFTISRDNSKNTLFLQMNSLRAEDTAVYYCARDRLNYYESSGYYHYKYYGMAVWGQGTTVTVSSASTKGPSVFPLAPSSKSTSGGTAALGCLVKDYFPEPVTVSWNSGALTSGVHTFPAVLQSSGLYSLESVVTVPSSSLGTQTYICNVNHKPSNTKVDKKVEPKSCDKTHTCPPCPAPELLGGPSVFLFPPKPKDTLMISRTPEVTCVVVDVSHEDPEVKFNWYVDGVEVHNAKTKPCEEQYGSTYRCVSVLTVLHQDWLNGKEYKCKVSNKALPAPIEKTISKAKGQPREPQVYTLPPSRKEMTKNQVSLTCLVKGFYPSDIAVEWESNGQPENNYKTTPPVLKSDGSFFLYSKLTVDKSRWQQGNVFSCSVMHEALHNHYTQKSLSLSPGK
% inhibition of human CGRPR (human CGRP receptor): 90%
% inhibition of human PAC1 (human PAC1 receptor): 96%

B3: iPS:327708 (bispecific antibody, human IgG1, kappa, lambda, N297G)
light 1: not shown
heavy 1: not shown
light 2: B2 light 2 with T72A
heavy 2: B2 heavy 2 with E105D
% inhibition of human CGRPR (human CGRP receptor): 79%
% inhibition of human PAC1 (human PAC1 receptor): 18%

B4: iPS:327703 (bispecific antibody, human IgG1, kappa, lambda, N297G)
light 1: not shown
heavy 1: not shown
light 2: B2 light 2 with T72A, K103G
heavy 2: B2 heavy 2 with E44G, E105D
% inhibition of human CGRPR (human CGRP receptor): 83%
% inhibition of human PAC1 (human PAC1 receptor): 87%

B5: iPS:327704 (bispecific antibody, human IgG1, kappa, lambda, N297G)
light 1: not shown
heavy 1: not shown
light 2: B2 light 2 with T72A, K103G
heavy 2: B2 heavy 2 with E44G, E105D
% inhibition of human CGRPR (human CGRP receptor): 82%
% inhibition of human PAC1 (human PAC1 receptor): 71%

B6: iPS:327711 (bispecific antibody, human IgG1, kappa, lambda, N297G)
light 1: not shown
heavy 1: not shown
light 2: B2 light 2 with T72A, K103G
heavy 2: B2 heavy 2 with E44G, E105D, E370K
% inhibition of human CGRPR (human CGRP receptor): 87%
% inhibition of human PAC1 (human PAC1 receptor): 97%

B7: iPS:327700 (bispecific antibody, human IgG1, kappa, lambda, N297G)
light 1: not shown
heavy 1: not shown
light 2: B2 light 2 with K103G
heavy 2: B2 heavy 2 with E44G, E370K
% inhibition of human CGRPR (human CGRP receptor): 77%
% inhibition of human PAC1 (human PAC1 receptor): 72%

B8: iPS:327709 (bispecific antibody, human IgG1, kappa, lambda, N297G)
light 1: DIQLTQSPSFLSASVGDRVTITCRASQSIGRSLHWYQQKPGKAPKLLIKYASQSLSGVPSRFSGSGSGTEFTLTISSLQPEDFATYYCHQSSRLPFTFGEGTKVDIKRTVAAPSVFIFPPSDEQLKSGTASVVCLLNNFYPREAKVQWKVDNALQSGNSQESVTEQDSKDSTYSLESTLTLSKADYEKHKVYACEVTHQGLSSPVTKSFNRGEC
heavy 1: not shown
light 2: B2 light 2 with T72A
heavy 2: B2 heavy 2 with E105D
% inhibition of human CGRPR (human CGRP receptor): 82%
% inhibition of human PAC1 (human PAC1 receptor): 29%

B9: iPS:327701 (bispecific antibody, human IgG1, kappa, lambda, N297G)
light 1: B8 light 1 with E100P
heavy 1: not shown
light 2: B2 light 2 with K103G
heavy 2: B2 heavy 2 with E44G, E370K
% inhibition of human CGRPR (human CGRP receptor): 73%
% inhibition of human PAC1 (human PAC1 receptor): 41%

B10: iPS:327714 (bispecific antibody, human IgG1, kappa, lambda, N297G)
light 1: B2 light 1 with E100P
heavy 1: not shown
light 2: B2 light 2 with T72A, K103G
heavy 2: B2 heavy 2 with E44G, E105D, E370K
% inhibition of human CGRPR (human CGRP receptor): 94%
% inhibition of human PAC1 (human PAC1 receptor): 104%

B11: iPS:327713 (bispecific antibody, human IgG1, kappa, lambda, N297G)
light 1: B8 light 1 with E100P
heavy 1: not shown
light 2: B2 light 2 with T72A, K103G
heavy 2: B2 heavy 2 with E44G, E105D, E370K
% inhibition of human CGRPR (human CGRP receptor): 89%
% inhibition of human PAC1 (human PAC1 receptor): 85%

B12: iPS:327712 (bispecific antibody, human IgG1, kappa, lambda, N297G)
light 1: not shown
heavy 1: not shown
light 2: B2 light 2 with T72A, K103G
heavy 2: B2 heavy 2 with E44G, E105D, E370K
% inhibition of human CGRPR (human CGRP receptor): 89%
% inhibition of human PAC1 (human PAC1 receptor): 81%

B13: iPS:327702 (bispecific antibody, human IgG1, kappa, lambda, N297G)
light 1: B2 light 1 with E100P
heavy 1: not shown
light 2: B2 light 2 with K103G
heavy 2: B2 heavy 2 with E44G, E370K
% inhibition of human CGRPR (human CGRP receptor): 79%
% inhibition of human PAC1 (human PAC1 receptor): 86%

B14: iPS:327710 (bispecific antibody, human IgG1, kappa, lambda, N297G)
light 1: B2 light 1
heavy 1: not shown
light 2: B2 light 2 with T72A
heavy 2: B2 heavy 2 with E105D
% inhibition of human CGRPR (human CGRP receptor): 82%
% inhibition of human PAC1 (human PAC1 receptor): 61%

B15: iPS:327699 (bispecific antibody, human IgG1, kappa, lambda, N297G)
light 1: not shown
heavy 1: not shown
light 2: B2 light 2 with K103G
heavy 2: B2 heavy 2 with E44G, E370K
% inhibition of human CGRPR (human CGRP receptor): 72%
% inhibition of human PAC1 (human PAC1 receptor): 92%
